Measurements published in publication PMC5717350, “The human CTF4-orthologue AND-1 interacts with DNA polymerase α/primase via its unique C-terminal HMG box” (Open Biology, 2017).
No end group written: not given here.

What was measured:
Settings in all cases: both partners purified
[1] = target: T1, AND-1 SepB (336–826) (human, UniProt O75717 336-826); assay: pull-down; GST-Pol α fusion proteins bound to 100 µl glutathione agarose, 20 nmol AND-1 SepB added as prey; PD buffer, 2.5 mg/ml BSA, 4°C; eluted with 20 mM reduced glutathione; Coomassie
T1 construct: source: E. coli Rosetta2(DE3), purified (Ni-NTA, Q-Sepharose, TEV cleavage, Superdex 200)
T1 sequence (looked up): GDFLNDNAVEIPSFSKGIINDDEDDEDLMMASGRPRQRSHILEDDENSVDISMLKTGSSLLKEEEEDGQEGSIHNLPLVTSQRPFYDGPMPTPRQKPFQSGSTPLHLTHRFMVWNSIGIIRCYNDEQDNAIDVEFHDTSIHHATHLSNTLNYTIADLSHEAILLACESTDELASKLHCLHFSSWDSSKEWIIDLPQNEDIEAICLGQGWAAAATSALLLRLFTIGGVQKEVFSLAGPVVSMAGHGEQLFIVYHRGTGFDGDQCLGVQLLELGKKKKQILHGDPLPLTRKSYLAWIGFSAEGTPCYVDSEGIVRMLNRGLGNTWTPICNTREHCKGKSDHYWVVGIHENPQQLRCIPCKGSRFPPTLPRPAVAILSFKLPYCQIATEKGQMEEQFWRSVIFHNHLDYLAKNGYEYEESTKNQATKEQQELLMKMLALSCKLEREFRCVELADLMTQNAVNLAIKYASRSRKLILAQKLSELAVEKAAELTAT

[2] = target: T2, AND-1 (329–826), SepB domain (human, UniProt O75717 329-826); assay: fluorescence polarisation; 30 nM fluorescein-labelled Pol α CIP peptide, AND-1 SepB titrated; 25 mM HEPES pH 7.2, 140 mM NaCl, 5 mM DTT, 5 mM MgCl2, 5% glycerol; 25°C; 96-well plate
T2 construct: human AND-1, residues 329-826 (SepB domain); residues 329-420 and 824-826 not in the final crystallographic model; Trimer arises from crystallographic symmetry (one protomer per asymmetric unit); also called AND-1 SepB
T2 sequence (looked up): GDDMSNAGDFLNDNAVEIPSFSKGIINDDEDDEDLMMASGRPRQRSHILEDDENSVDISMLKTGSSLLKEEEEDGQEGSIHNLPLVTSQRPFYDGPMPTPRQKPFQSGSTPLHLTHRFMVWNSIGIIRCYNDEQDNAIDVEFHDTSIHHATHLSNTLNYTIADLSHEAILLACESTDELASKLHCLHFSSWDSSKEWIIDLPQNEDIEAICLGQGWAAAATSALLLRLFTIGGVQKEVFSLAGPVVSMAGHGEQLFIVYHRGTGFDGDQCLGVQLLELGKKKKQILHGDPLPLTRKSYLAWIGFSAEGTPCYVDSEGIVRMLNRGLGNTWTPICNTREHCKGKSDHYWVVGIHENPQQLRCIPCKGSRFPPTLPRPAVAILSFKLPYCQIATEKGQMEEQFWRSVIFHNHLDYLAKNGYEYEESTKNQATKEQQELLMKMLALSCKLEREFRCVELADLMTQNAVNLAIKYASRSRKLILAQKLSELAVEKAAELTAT

[3] = target: T3, MBP-tagged AND-1CT (837–1129) (human, UniProt O75717 837-1129); assay: pull-down; MBP-AND-1 constructs bound to 100 µl amylose resin, 25 nmol GST-B added as prey; PD buffer, 2.5 mg/ml BSA, 4°C; eluted with 20 mM maltose; Coomassie
T3 construct: also called entire AND-1CT; source: E. coli Rosetta2(DE3), purified (Ni-NTA, Superdex 200)
T3 sequence (looked up): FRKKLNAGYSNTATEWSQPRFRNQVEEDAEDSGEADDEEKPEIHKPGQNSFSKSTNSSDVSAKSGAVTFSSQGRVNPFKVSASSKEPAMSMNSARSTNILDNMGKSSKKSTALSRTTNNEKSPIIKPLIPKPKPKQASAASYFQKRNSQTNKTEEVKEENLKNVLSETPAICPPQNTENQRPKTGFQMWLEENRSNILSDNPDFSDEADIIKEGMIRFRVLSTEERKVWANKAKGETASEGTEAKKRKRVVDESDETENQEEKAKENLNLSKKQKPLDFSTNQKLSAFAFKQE

[4] = target: T4, Full-length His10-myc-tagged AND-1 (1–1129) (human, UniProt O75717 1-1129); assay: pull-down; GST-B fusion proteins (in figure 6a also GST-Pol α CIP, equimolar) bound to 100 µl glutathione agarose, 2.2 nmol AND-1 (1–1129, 316–1129 or 336–826) added as prey; PD buffer, 2.5 mg/ml BSA, 4°C; Coomassie, anti-His western blot in figure 6a
T4 construct: the oligomeric state was measured only on the SepB constructs; also called His-myc-AND-1; human CTF4-orthologue AND-1; source: Sf9 insect cells (baculovirus, MultiBac), purified (Ni-NTA, Q-Sepharose)
T4 sequence (looked up): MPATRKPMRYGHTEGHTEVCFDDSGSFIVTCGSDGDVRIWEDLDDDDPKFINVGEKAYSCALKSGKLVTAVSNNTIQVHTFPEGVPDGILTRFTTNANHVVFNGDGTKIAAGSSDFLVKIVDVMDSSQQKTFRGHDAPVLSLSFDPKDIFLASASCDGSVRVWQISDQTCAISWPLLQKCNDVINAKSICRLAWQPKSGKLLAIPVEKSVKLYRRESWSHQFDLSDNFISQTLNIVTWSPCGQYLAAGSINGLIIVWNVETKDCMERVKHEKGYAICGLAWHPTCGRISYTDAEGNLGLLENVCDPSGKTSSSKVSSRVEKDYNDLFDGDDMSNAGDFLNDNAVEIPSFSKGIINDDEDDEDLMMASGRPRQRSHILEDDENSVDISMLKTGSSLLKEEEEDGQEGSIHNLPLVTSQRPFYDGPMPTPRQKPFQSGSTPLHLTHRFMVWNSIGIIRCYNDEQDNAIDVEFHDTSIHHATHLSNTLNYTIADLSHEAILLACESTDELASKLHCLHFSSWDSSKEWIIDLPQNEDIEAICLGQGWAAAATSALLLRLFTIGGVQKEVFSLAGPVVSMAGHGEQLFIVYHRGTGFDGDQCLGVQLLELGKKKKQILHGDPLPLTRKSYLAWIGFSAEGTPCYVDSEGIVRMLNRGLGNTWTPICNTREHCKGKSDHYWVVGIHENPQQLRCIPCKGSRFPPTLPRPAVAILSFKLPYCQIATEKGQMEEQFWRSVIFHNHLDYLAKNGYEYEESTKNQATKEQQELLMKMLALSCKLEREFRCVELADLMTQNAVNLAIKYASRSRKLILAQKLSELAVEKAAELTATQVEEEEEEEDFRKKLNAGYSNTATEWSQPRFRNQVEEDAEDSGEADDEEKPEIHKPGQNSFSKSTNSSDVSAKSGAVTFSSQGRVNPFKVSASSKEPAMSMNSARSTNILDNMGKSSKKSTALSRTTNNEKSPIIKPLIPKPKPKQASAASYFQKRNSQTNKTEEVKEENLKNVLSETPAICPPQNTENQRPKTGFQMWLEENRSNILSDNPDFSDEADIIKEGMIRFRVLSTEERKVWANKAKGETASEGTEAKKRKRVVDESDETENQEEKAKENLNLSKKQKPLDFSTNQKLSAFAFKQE

[5] = target: T5, AND-1 SepB + CT (316–1129) (human, UniProt O75717 316-1129); assay: as above
T5 construct: source: E. coli Rosetta2(DE3), purified (Ni-NTA, Q-Sepharose, TEV cleavage, Superdex 200)
T5 sequence (looked up): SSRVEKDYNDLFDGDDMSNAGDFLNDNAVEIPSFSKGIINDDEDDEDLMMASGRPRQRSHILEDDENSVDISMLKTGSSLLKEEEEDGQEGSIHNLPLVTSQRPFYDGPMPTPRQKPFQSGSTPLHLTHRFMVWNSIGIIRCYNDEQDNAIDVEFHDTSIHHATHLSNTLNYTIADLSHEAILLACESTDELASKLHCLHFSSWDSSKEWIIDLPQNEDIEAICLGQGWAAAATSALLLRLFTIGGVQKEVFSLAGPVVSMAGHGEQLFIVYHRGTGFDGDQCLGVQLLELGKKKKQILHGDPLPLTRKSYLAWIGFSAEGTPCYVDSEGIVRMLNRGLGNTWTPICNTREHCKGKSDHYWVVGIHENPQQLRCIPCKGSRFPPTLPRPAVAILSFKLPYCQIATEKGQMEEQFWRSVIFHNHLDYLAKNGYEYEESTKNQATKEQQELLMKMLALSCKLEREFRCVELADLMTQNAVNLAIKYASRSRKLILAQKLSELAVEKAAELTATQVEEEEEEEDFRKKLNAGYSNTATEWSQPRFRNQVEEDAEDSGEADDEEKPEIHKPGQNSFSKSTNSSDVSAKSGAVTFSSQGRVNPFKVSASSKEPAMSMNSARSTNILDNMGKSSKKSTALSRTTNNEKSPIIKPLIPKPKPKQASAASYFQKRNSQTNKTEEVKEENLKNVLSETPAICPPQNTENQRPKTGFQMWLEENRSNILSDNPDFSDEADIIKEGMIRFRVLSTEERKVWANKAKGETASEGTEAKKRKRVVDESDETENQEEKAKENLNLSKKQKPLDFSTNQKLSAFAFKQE

B1: GST-Pol α (148–171), wild type (domain or fragment, human)
chain: DKAVDLSKDGLLGDILQDLNTETP
notes: also called GST-Pol α CIP; GST-tagged Pol α CIP; source: E. coli Rosetta2(DE3), purified (Ni-NTA agarose); not shown: His tag (from the purification on Ni-NTA)
binding result [1]: binds

B2: Fluorescein-labelled Pol α CIP peptide (152–171) (peptide)
peptide: DLSKDGLLGDILQDLNTETP
modifications: also: fluorescein label, position not given here
notes: source: synthetic peptide (Genosphere Biotechnologies)
Kd [2]: 39 µM

B3: GST-BNTD (B subunit amino acids 1–78) (domain or fragment, human, UniProt Q14181 1-78, looked up)
chain: MSASAQQLAEELQIFGLDCEEALIEKLVELCVQYGQNEEGMVGELIAFCTSTHKVGLTSEILNSFEHEFLSKRLSKAR
notes: human DNA polymerase α B subunit, residues 1-78 (four-helix bundle N-terminal domain); also called GST-B(1–78); B N-terminal domain; source: E. coli Rosetta2(DE3), purified (Ni-NTA agarose)
binding result [3]: binds
binding result [4]: binds
binding result [5]: binds
